Test system: Escherichia coli TOP10
Assay: shrunken log2 fold change of peptide-encoding DNA abundance (4.5 h post-induction vs induction); higher = less antimicrobial activity (less host growth inhibition)
Conditions: time post-induction: 4.5 h; library: site-saturation at positions 5, 18, 19, 20
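Also: peptides expressed intracellularly from a pBAD plasmid library in pooled LB shake-flask culture, induced with 0.3% L-arabinose, DNA abundance read by NGS, three biological replicates, DESeq2 with apeglm shrinkage.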

Sequence	shrunken log2 fold change
RRIRLRPPRLPRPRPRPMQKPRP	-0.0247
RRIRYRPPRLPRPRPRPDLIPRP	-0.302
RRIRWRPPRLPRPRPRPVDMPRP	-0.0613
RRIRYRPPRLPRPRPRPRRGPRP	0.114
RRIRCRPPRLPRPRPRPPRNPRP	1.05
RRIRPRPPRLPRPRPRPPQAPRP	0.335
RRIRMRPPRLPRPRPRPSNDPRP	0.184
RRIRLRPPRLPRPRPRPNWCPRP	0.374
RRIRIRPPRLPRPRPRPCGWPRP	0.0831
RRIRDRPPRLPRPRPRPPLEPRP	0.699
RRIRWRPPRLPRPRPRPTRWPRP	0.573
RRIRIRPPRLPRPRPRPNKQPRP	-0.525
RRIRMRPPRLPRPRPRPEEWPRP	0.00599
RRIRMRPPRLPRPRPRPQRSPRP	0.629
RRIRPRPPRLPRPRPRPPQPPRP	0.441
RRIRWRPPRLPRPRPRPAPPPRP	0.579
RRIRQRPPRLPRPRPRPQSNPRP	-0.00933
RRIRSRPPRLPRPRPRPCNNPRP	-0.332
RRIRNRPPRLPRPRPRPKCAPRP	0.243
RRIRWRPPRLPRPRPRPKEIPRP	0.487
RRIRKRPPRLPRPRPRPKVEPRP	0.0183
RRIRSRPPRLPRPRPRPFGRPRP	-0.0701
RRIRYRPPRLPRPRPRPHCVPRP	-0.0324
RRIRARPPRLPRPRPRPFFSPRP	-0.0124
RRIRHRPPRLPRPRPRPMFTPRP	-0.102

Sequence	shrunken log2 fold change
RRIRARPPRLPRPRPRPMLNPRP	-0.167
RRIRPRPPRLPRPRPRPHLDPRP	0.158
RRIRWRPPRLPRPRPRPKMKPRP	0.193
RRIRSRPPRLPRPRPRPQNQPRP	-0.455
RRIRQRPPRLPRPRPRPIAAPRP	0.269
RRIRDRPPRLPRPRPRPASGPRP	0.15
RRIRMRPPRLPRPRPRPKGLPRP	-0.0628
RRIRVRPPRLPRPRPRPAGGPRP	1.15
RRIRFRPPRLPRPRPRPVSVPRP	-0.341
RRIRRRPPRLPRPRPRPVVEPRP	0.339
RRIRLRPPRLPRPRPRPLYRPRP	-0.0861
RRIRERPPRLPRPRPRPIAHPRP	-0.171
RRIRSRPPRLPRPRPRPNLQPRP	-0.141
RRIRDRPPRLPRPRPRPVCLPRP	0.345
RRIRYRPPRLPRPRPRPNWNPRP	-1.09
RRIRHRPPRLPRPRPRPRYWPRP	0.319
RRIRSRPPRLPRPRPRPEGDPRP	0.203
RRIRWRPPRLPRPRPRPRREPRP	0.427
RRIRPRPPRLPRPRPRPHCSPRP	-0.0583
RRIRMRPPRLPRPRPRPNCFPRP	0.153
RRIRIRPPRLPRPRPRPAPGPRP	0.371
RRIRGRPPRLPRPRPRPCQPPRP	-0.0639
RRIRRRPPRLPRPRPRPQFLPRP	-0.0792
RRIRGRPPRLPRPRPRPYFRPRP	0.0786
RRIRFRPPRLPRPRPRPCYCPRP	-0.064

Sequence	shrunken log2 fold change
RRIRKRPPRLPRPRPRPPNQPRP	0.17
RRIRKRPPRLPRPRPRPGGGPRP	0.976
RRIRHRPPRLPRPRPRPDKMPRP	-0.0794
RRIRRRPPRLPRPRPRPDTWPRP	-0.131
RRIRYRPPRLPRPRPRPTPEPRP	0.264
RRIRGRPPRLPRPRPRPSAAPRP	2.09
RRIRARPPRLPRPRPRPIETPRP	-0.18
RRIRVRPPRLPRPRPRPSITPRP	-0.504
RRIRWRPPRLPRPRPRPWRRPRP	0.117
RRIRWRPPRLPRPRPRPGTRPRP	0.377
RRIRNRPPRLPRPRPRPHWHPRP	-0.65
RRIRARPPRLPRPRPRPESYPRP	1.13
RRIRKRPPRLPRPRPRPMHFPRP	0.0573
RRIRLRPPRLPRPRPRPHRKPRP	-0.295
RRIRYRPPRLPRPRPRPGRLPRP	-0.0505
RRIRARPPRLPRPRPRPPWTPRP	0.385
RRIRLRPPRLPRPRPRPEKLPRP	-0.00411
RRIRVRPPRLPRPRPRPFPHPRP	-0.366
RRIRRRPPRLPRPRPRPEGMPRP	1.27
RRIRVRPPRLPRPRPRPHFTPRP	-0.253
RRIRARPPRLPRPRPRPMADPRP	0.357
RRIRFRPPRLPRPRPRPLDDPRP	-0.209
RRIRMRPPRLPRPRPRPRFKPRP	0.498
RRIRIRPPRLPRPRPRPEWGPRP	-0.0166
RRIRNRPPRLPRPRPRPNSSPRP	-0.219

— the supplement of paper PMC9112550, “Optimization of the antimicrobial peptide Bac7 by deep mutational scanning” (BMC Biology, 2022)
